Where a chain is given by its changes, count along the chain named.
T1: relaxin receptor (LGR7)
T1 sequence (Q9HBX9 whole entry, species assumed, looked up): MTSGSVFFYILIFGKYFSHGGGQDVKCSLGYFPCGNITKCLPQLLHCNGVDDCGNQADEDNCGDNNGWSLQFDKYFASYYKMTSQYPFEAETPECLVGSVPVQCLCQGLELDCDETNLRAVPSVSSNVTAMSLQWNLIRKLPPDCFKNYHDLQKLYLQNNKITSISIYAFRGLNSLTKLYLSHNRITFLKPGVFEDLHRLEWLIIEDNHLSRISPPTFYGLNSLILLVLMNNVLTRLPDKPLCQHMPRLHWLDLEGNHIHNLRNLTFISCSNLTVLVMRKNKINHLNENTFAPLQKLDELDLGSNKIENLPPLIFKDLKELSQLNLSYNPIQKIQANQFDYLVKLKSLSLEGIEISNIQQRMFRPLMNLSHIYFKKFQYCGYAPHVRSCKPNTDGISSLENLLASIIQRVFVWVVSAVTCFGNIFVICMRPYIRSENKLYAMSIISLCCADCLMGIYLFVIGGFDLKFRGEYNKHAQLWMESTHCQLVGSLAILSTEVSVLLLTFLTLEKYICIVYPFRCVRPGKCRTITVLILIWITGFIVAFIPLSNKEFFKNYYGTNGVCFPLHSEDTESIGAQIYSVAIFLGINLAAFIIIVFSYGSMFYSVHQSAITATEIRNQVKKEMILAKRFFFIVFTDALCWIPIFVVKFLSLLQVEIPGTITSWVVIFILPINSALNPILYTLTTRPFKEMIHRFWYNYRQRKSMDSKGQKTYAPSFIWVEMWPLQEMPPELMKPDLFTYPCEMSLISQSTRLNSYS

B1: SC3: Palivizumab (null, 16GS)-relaxin2(9GS) and Palivizumab L (antibody, human IgG1, kappa)
heavy: DSWMEEVIKLCGRELVRAQIAICGMSTWSGGGGSGGGGQLYSALANKCCHVGCTKRSLARFCGGGGSGGGGSGGGGSGQVTLRESGPALVKPTQTLTLTCTFSGFSLSTSGMSVGWIRQPPGKALEWLADIWWDDKKDYNPSLKSRLTISKDTSKNQVVLKVTNMDPADTATYYCARSMITNWYFDVWGAGTTVTVSSASTKGPSVFPLAPSSKSTSGGTAALGCLVKDYFPEPVTVSWNSGALTSGVHTFPAVLQSSGLYSLSSVVTVPSSSLGTQTYICNVNHKPSNTKVDKKVEPKSCDKTHTCPPCPAPPVAGPSVFLFPPKPKDTLMISRTPEVTCVVVDVSHEDPEVKFNWYVDGVEVHNAKTKPREEQYNSTYRVVSVLTVLHQDWLNGKEYKCKVSNKGLPSSIEKTISKAKGQPREPQVYTLPPSRDELTKNQVSLTCLVKGFYPSDIAVEWESNGQPENNYKTTPPVLDSDGSFFLYSKLTVDKSRWQQGNVFSCSVMHEALHNHYTQKSLSLSPGK
light: DIQMTQSPSTLSASVGDRVTITCKCQLSVGYMHWYQQKPGKAPKLLIYDTSKLASGVPSRFSGSGSGTEFTLTISSLQPDDFATYYCFQGSGYPFTFGGGTKLEIKRTVAAPSVFIFPPSDEQLKSGTASVVCLLNNFYPREAKVQWKVDNALQSGNSQESVTEQDSKDSTYSLSSTLTLSKADYEKHKVYACEVTHQGLSSPVTKSFNRGEC
B2: SCX1: palivizumab(NH1, 16GS)-relaxin2(9GS) and palivizumab L (antibody, human IgG1, kappa)
heavy: B1 heavy with W183A
light: B1 light
B3: SCX2: palivizumab(NH2, 16GS)-relaxin2(9GS) and palivizumab L (antibody, human IgG1, kappa)
heavy: B1 heavy with W183G
light: B1 light
B4: SCX3: palivizumab(NH3, 16GS)-relaxin2(9GS) and palivizumab L (antibody, human IgG1, kappa)
heavy: B1 heavy with N182F, W183G, Y184G
light: B1 light

What was measured:
[1] = biological target: T1, relaxin receptor (LGR7); assay: cell-based or functional assay
[2] = biological target: LGR8; assay: cell-based or functional assay
[3] = biological target: T2, RSV F protein (UniProt P03420 26-524); assay: plate binding assay, RSV F protein coated, anti-human IgG (Fc specific) detection, fluorescence read at 25 min
[4] = biological target: T2, RSV F protein; assay: plate binding assay, RSV F protein coated, anti-human IgG (Fc specific) detection, fluorescence read at 50 min
[5] = biological target: T1, relaxin receptor (LGR7); assay: cell-based or functional assay; remark: listed apart in the source

Chain of LGR8 (Q8WXD0 whole entry): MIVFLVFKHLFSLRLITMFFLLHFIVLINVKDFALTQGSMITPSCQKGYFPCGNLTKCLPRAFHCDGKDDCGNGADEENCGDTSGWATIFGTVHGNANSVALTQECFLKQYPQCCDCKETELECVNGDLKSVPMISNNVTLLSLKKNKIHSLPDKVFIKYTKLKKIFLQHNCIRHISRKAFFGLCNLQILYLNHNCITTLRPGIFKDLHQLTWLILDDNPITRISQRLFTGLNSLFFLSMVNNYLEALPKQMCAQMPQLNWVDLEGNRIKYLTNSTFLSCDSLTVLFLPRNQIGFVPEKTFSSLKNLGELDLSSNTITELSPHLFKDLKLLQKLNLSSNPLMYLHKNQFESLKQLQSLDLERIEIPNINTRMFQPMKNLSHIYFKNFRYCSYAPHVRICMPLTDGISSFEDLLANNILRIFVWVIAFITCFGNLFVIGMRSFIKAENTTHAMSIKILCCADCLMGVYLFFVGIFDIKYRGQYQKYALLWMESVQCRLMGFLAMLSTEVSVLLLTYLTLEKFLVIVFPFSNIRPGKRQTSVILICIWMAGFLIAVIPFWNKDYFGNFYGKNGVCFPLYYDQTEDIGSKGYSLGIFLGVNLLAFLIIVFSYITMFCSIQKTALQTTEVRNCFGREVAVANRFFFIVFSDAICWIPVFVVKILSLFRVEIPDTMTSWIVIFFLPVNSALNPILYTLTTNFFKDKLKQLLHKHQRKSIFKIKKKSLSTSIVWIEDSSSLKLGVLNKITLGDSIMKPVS
T2 sequence (P03420 26-524): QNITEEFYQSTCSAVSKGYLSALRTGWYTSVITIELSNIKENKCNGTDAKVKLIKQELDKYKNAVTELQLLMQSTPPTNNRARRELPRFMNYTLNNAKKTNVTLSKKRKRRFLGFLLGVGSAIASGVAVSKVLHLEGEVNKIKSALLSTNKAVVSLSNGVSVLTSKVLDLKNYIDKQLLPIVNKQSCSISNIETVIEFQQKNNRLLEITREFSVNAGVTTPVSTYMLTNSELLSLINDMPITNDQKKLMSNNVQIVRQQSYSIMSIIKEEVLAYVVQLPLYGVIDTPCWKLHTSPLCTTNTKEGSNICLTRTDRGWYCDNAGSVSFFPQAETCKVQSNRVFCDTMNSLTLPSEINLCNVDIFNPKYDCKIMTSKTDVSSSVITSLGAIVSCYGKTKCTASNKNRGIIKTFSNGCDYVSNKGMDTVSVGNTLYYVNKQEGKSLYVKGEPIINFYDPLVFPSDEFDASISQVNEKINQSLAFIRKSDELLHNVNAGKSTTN

Binder	LGR7 [1] [nM]	LGR8 [2] [nM]	Kd [3] [nM]	Kd [4] [nM]	EC50, CRE-luciferase reporter assay [5] [nM]
B1	0.205	177	0.425	0.249	–
B2	0.129	939	112	83.1	0.0691
B3	0.115	327	14.4	9.03	0.0612
B4	0.115	16300	163	107	0.129

Source: US20190263882A1 (Scripps Research, published 2019)
